Assay results as given in patent US20240018256A1 (JUNO THERAPEUTICS, published 2024).
Positions count from the first letter of the chain named. One block for each binder: values may come before it.

Key:
human CD19 [1] = molecular target: T1, human CD19 (human, UniProt P15391 20-556); assay: flow cytometry on CD19-expressing cells (n = 1)
T1 sequence: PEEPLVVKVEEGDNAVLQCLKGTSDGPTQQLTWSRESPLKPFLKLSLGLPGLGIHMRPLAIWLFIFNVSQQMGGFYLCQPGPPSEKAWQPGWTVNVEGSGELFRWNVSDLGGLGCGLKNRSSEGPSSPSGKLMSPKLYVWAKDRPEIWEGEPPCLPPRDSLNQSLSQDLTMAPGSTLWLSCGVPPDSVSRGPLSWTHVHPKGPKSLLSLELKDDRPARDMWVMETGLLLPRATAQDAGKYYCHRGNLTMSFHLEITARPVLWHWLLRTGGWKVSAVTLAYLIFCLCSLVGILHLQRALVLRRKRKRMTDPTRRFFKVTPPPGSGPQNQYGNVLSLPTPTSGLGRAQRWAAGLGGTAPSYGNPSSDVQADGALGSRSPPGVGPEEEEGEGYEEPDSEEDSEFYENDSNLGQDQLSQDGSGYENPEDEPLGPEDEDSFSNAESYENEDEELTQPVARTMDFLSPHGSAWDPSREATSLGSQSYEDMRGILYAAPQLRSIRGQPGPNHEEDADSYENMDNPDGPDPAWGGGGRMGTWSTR
Excerpt: Various clones were titrated and their binding affinity (EC50) to various CD19-expressing cells assessed by flow cytometry.

human CD19 [2] = molecular target: T1, human CD19; assay: flow cytometry on CD19-expressing cells (n = 4)
human CD19 [3] = molecular target: T1, human CD19; assay: flow cytometry competition for binding with FMC63 (n = 1)
human CD19 [4] = molecular target: T1, human CD19; assay: flow cytometry, HIS-tagged scFv bacterial supernatant on CD19-transfected HEK293 cells (FIG. 8C)
Excerpt: (§1) A third scFv library was generated by shuffling the VH sequences from the selection in (a) with the VL sequences resulting from the selection in (b). […] Binding by the selected scFv clones to CD19-expressing cells was confirmed by flow cytometry using bacterially-produced supernatant. The selected scFv pools were cloned into E. coli expression vectors and produced as HIS-tagged scFvs. Binding of individual clones to CD19-transfected HEK293 cells was detected with anti-HIS-Alexa647 conjugate by flow cytometry.

human CD19 [5] = molecular target: T1, human CD19; assay: flow cytometry competition for binding with FMC63 (n = 3)
human CD19 [6] = molecular target: T1, human CD19; assay: flow cytometry, HIS-tagged scFv bacterial supernatant on CD19-transfected HEK293 cells (FIG. 8A)
Excerpt: as §1

human CD19 [7] = molecular target: T1, human CD19; assay: flow cytometry, HIS-tagged scFv bacterial supernatant on CD19-transfected HEK293 cells (FIG. 8B)
Excerpt: as §1

human CD19 [8] = molecular target: T1, human CD19; assay: flow cytometry, scFv titrated on CD19-expressing K562 cells (FIG. 3A)
human CD19 [9] = molecular target: T1, human CD19; assay: flow cytometry, scFv titrated on CD19-expressing K562 cells (FIG. 4, another plate)
human CD19 [10] = molecular target: T1, human CD19; assay: flow cytometry on CD19-expressing cells (n = 3)
human CD19 [11] = molecular target: T1, human CD19; assay: flow cytometry competition for binding with FMC63 (n = 2)
human CD19 [12] = molecular target: T1, human CD19; assay: flow cytometry, scFv titrated on CD19-expressing K562 cells (FIG. 4, one plate)

B2: Clone 328 scFv (scFv)
scFv: QVQLVESGGGLVQPGRSLRLSCAASGFTFDDYAMHWVRQAPGKGLEWVSGISWNSGRIGYADSVKGRFTISRDNAKNSLFLQMNSLRAEDTAVYYCARDQGYHYYDSAEHAFDIWGQGTVVTVSSGGGGSGGGGSGGGGSQSALTQPASVSGSPGHSITISCTGTRSDVGGFDYVSWYQHNPGKAPKLIIYDVTKRPSGVSNRFSGAKSGITASLTISGLQAEDEADYYCTSYRPGPTFVFGTGTKLTVL
notes: Human scFv
EC50 (human CD19 [2]): 10.9 nM
IC50 (human CD19 [3]): 32.9 nM

B4: Clone 285 scFv (scFv)
scFv: EVQLVESGGGLVQPGRSLRLSCAASGFTFDDYAMHWVRQAPGKGLEWVSGISWNSGRIGYADSVKGRFTISRDNAKNSLFLQMNSLRAEDTAVYYCARDQGYHYYDSAEHAFDIWGQGTVVTVSSGGGGSGGGGSGGGGSQSALTQPASVSGSPGQSITISCTGTSSDLGGYNYVSWYQHRPGKAPKLIIYDVTVRPSGVSDRFSGSKSGNTASLTISGLQAEDEADYYCGSYTSSSTLLWVFGGGTKLTVL
notes: Human scFv
EC50 (human CD19 [2]): 2.5 nM
IC50 (human CD19 [5]): 9.4 nM

B9: Clone 192 scFv (scFv)
scFv: EVQLVESGGGLVQPGRSLRLSCAASGFTFDDYAMHWVRQAPGKGLEWVSGISWNSGRIGYADSVKGRFTISRDNAKNSLFLQMNSLRAEDTAVYYCARDQGYHYYDSAEHAFDIWGQGTMVTVSSGGGGSGGGGSGGGGSQAVLTQPRSVSGSPGQSVTISCTGISSGVDSHRYVSWYQHHPGKAPKLMIYDFSKRPSGVPDRFSGSKSGNTASLTISGLQAEDEADYYCCSYAAISPNYVFGTGTKLTVL
notes: Human scFv
EC50 (human CD19 [8]): 12.8 nM
EC50 (human CD19 [9]): 12 nM

B10: Clone 192B scFv (scFv)
scFv: B9 scFv with E1Q, C231S
notes: Human scFv
IC50 (human CD19 [5]): 15.7 nM
EC50 (human CD19 [10]): 7.7 nM

B12: Clone 1 scFv (scFv)
scFv: EVQLVESGGGLVQPGRSLRLSCAASGFTFDDYAMHWVRQAPGKGLEWVSGISWNSGRIGYADSVKGRFTISRDNAKNSLFLQMNSLRAEDTAVYYCARDQGYHYYDSAEHAFDIWGQGTMVTVSSGGGGSGGGGSGGGGSQSALTQPASVSGSPGQSITISCTGTSSDVGAYNFVSWYQQLPGTAPKFLIYDNNKRPPGIPDRFSGSKSGTSATLGITGLQTGDEADYYCATWDSGLSAVVFGGGTKLTVL
notes: Human scFv
EC50 (human CD19 [12]): 214 nM
EC50 (human CD19 [1]): 214 nM

B14: Clone 79 scFv (scFv)
scFv: EVQLVESGGGLVQPGRSLRLSCAASGFTFDDYAMHWVRQAPGKGLEWVSGISWNSGRIGYADSVKGRFTISRDNAKNSLFLQMNSLRAEDTAVYYCARDQGYHYYDSAEHAFDIWGQGTVVTVSSGGGGSGGGGSGGGGSQSVLTQPPSVSAAPGQKVTISCSGSSSNIGNNYVSWYQQLPGTAPKLLIYDNNKRPSGIPDRFSGSKSGTSATLGITGLQTGDEGDYYCGTWDISLRFGVFGGGTKVTVL
notes: Human scFv
EC50 (human CD19 [1]): 65.7 nM
IC50 (human CD19 [3]): 102 nM

B15: Clone 227 scFv (scFv)
scFv: EVQLVQSGGGLVQPGRSLRLSCAASGFTFDDYAMHWVRQAPGKGLEWVSGISWNSGSIGYADSVKGRFTISRDNAKNSLYLQMNSLRAEDTAVYYCARDQGYHYYDSAEHAFDIWGQGTVVTVSSGGGGSGGGGSGGGGSDIQLTQSPSTLSASVGDRVTITCRASQSISRWLAWYQQKPGKAPKLLIYDASNLETGVPSRFSGSGSGTDFTFTISSLQPEDIATYYCQQYDNLPLTFGGGTKVEIK
notes: Human scFv
EC50 (human CD19 [10]): 31.8 nM
IC50 (human CD19 [11]): 56.1 nM

B16: Clone 184 scFv (scFv, V domains shown)
VH: QVQLVESGGGLVQPGRSLRLSCAASGFTFDDYAMHWVRQAPGKGLEWVSGISWNSGRIGYADSVKGRFTISRDNAKNSLFLQMNSLRAEDTAVYYCARDQGYHYYDSAEHAFDIWGQGTMVTVSS
EC50 (human CD19 [1]): 114 nM
EC50 (human CD19 [9]): 114 nM

B17: Clone 505 scFv (scFv)
scFv: EVQLVESGGGLVQPGRSLRLSCAASGFTFDDYAMHWVRQAPGKGLEWVSGISWNSGRIGYADSVKGRFTISRDNAKNSLFLQMNSLRAEDTAVYYCARDQGYHYYDSAEHAFDIWGQGTMVTVSSQSVLTQPRSLSGSPGQSVTIACTGASTDVGGYNYVSWYQQHPGKAPKLMIYDVNKRPSGVPDRFSGSKSGNTAFLTISGLQAEDEADYYCCSYAGSYTFEVFGGGTKLTVL
EC50 (human CD19 [1]): 139 nM

The next lines start with the values.

EC50 (human CD19 [1]): 179 nM
B1: Clone 506 scFv (scFv)
scFv: EVQLVESGGGLVQPGRSLRLSCAASGFTFDDYAMHWVRQAPGKGLEWVSGISWNSGRIGYADSVKGRFTISRDNAKNSLFLQMNSLRAEDTAVYYCARDQGYHYYDSAEHAFDIWGQGTMVTVSSGGGGSGGGGSGGGGSQLVLTQPPSVSGSPGQSVTFSCTGASSDVGGYDHVSWYQHHPGKGPKLLIYDVSKRPSGVPDRFSGSKSGNTASLTISGLQAEDEADYYCCSFAGYYTYWLFGGGTKVTVL
notes: Human scFv

binding result (human CD19 [4]): binds
B3: Clone 440 scFv (scFv)
scFv: B2 scFv with T248D, V249I, L250K
notes: HIS- or FLAG-tagged

binding result (human CD19 [6]): binds
B5: Clone 283 scFv (scFv)
scFv: B4 scFv with E1Q
notes: HIS- or FLAG-tagged

binding result (human CD19 [7]): binds
B6: Clone 302 scFv (scFv)
scFv: B4 scFv with E1Q
notes: HIS- or FLAG-tagged

binding result (human CD19 [4]): binds
B7: Clone 448 scFv (scFv)
scFv: B4 scFv with E1Q, T250D, V251I, L252K
notes: HIS- or FLAG-tagged

binding result (human CD19 [7]): binds
B8: Clone 336 scFv (scFv)
scFv: B4 scFv with E1Q
notes: HIS- or FLAG-tagged

EC50 (human CD19 [10]): 1.3 nM
IC50 (human CD19 [11]): 3.9 nM
B11: Clone 1300 scFv (scFv)
scFv: QMQLVQSGGGLVQPGRSLRLSCAASGFTFDDYAMHWVRQAPGKGLEWVSGISWNSGSIGYADSVKGRFTISRDNAKNSLYLQMNSLRAEDTAVYYCARDQGYHYYDSAEHAFDIWGQGTVVTVSSGGGGSGGGGSGGGGSAIRMTQSPSTLSASVGDRVTITCRASQSISHYLAWYQQKPGKAPKLLIFDASRLASGVPSRFSGSGSGTDFTLTISSLQPEDFATYYCQQSYGAPMFTFGPGTRVDLK
notes: Human scFv

binding result (human CD19 [6]): binds
B13: Clone 272 scFv (scFv)
scFv: EVQLVESGGGLVQPGRSLRLSCAASGFTFDDYAMHWVRQAPGKGLEWVSGISWNSGRIGYADSVKGRFTISRDNAKNSLFLQMNSLRAEDTAVYYCARDQGYHYYDSAEHAFDIWGQGTVVTVSSGGGGSGGGGSGGGGSQSVLTQPPSVSAAPGQKVTISCSGSSSNIGNNYVSWYQQLPGTAPKLLIYDNNKRPSGIPDRFSGSKSGTSATLGITGLQTGDEADYYCGTWDSSLNRDWVFGGGTKLTVL
notes: HIS- or FLAG-tagged
